The target in experiment [1] is T1, Properdin (Homo sapiens, UniProt P27918).
T1 construct: purchased Calbiochem
The experiment is described as follows: Peptide inhibition assay: inhibition of the stabilization of the C3 convertase mediated by Properdin (haemolytic, membrane-bound C3bBb). The conditions noted are these: for dose dependence of inhibition of Properdin stabilization: different doses of peptides; for % inhibition of the Properdin stabilization capacity: 50 ng Properdin pre-incubated with 10 μg peptide 2 h at room temperature, n=2 experiments. The format is biochemical. As to the method: (§1) The ability of patient' IgG to stabilize a pre-formed membrane bound C3bBb was measured with EAC3bBb generated by the incubation of EC3b with appropriate concentration of FB and FD. Briefly, IgG was partially purified from plasma by chromatography on DEAE-cellulose and subsequently quantified by nephelometry. DEAE eluate contains IgG, and also low levels of contaminants such as Properdin and Factor H. Sheep erythrocytes EAC34b were incubated in presence of FB (Complement Technology) and FD (Sigma) to form the alternative convertase C3bBb. The convertase was allowed to decay in EDTA-containing buffer in presence of 400 μg of patient' IgG. Lysis was developed by the addition of rat serum. C3NeF stabilization was measured as the percentage of the residual convertase compared to the reference control without decay. The cut-off for positive C3NeF was determined as the mean+2 sd of the C3NeF stabilization of IgG from 30 healthy individuals.
Different mixes of 50 ng of Properdin and 10 μg of peptides were incubated at room temperature for 2 hours with gentle shaking in EDTA-containing buffer. As a control, Properdin was incubated with the peptide's dilution buffer. Membrane-bound convertase was formed as in the C3bBb assay. During the convertase decay step, cells were incubated with the mix of FP and peptides. FP amount was chosen in order to obtain 50% of residual convertase after the decay. Residual convertase was measured and data were expressed as percentage of inhibition (percentage of residual convertase compared to the control without peptide).

The subject of experiment [2] is C3NeF (patient IgG). In words: Peptide inhibition assay with patients' IgG: reduction of C3NeF stabilization of the C3bBb convertase. The format is biochemical, human. The conditions noted are these: for decrease of % stabilization of P1 IgG: 100 μg IgG from P1 (stabilizes only C3bBb) taken as 100%, peptides pre-incubated overnight, n=3 experiments. As to the method: as §1
The test was performed as described earlier, but 80 μg of peptides was utilized and the incubation of IgG and peptides was made at 4° C. overnight. IgG amount was determined depending on their stabilization capacity, in order to obtain 50% of residual convertase after the decay.
Membrane-bound convertase was formed as in the C3bBb assay. During the convertase decay step, cells were incubated with a fixed dose of Peptides (80 μg) and patient' IgG (amount determined by the concentration of IgG leading to 50% of residual convertase). The concentration of IgG applied in the test was chosen depending on their C3NeF activity.

The target of experiment [3] is T1, Properdin. The experiment is described as follows: ELISA, biotinylated peptides coated, binding of Properdin. As to the method:
To investigate whether Properdin binds the peptides biotinylated peptides was coated onto ELISA plates and increased among of Properdin were incubated before adding anti human Properdin.

The test system of experiment [4] is C3NeF (patient IgG). The experiment is described as follows: Peptide inhibition assay with patients' IgG: reduction of C3NeF stabilization of the C3bBb convertase. The format is biochemical, human. The note with it: P1 IgG.
Experiment [5] concerns the target C3bBb alternative pathway C3 convertase (UniProt P01024). The experiment is described as follows: SPR (ProteOn XPR36), C3b on GLC chip, convertase formed with FB and FD, control IgG injected.
For experiment [6], the target named is C3bBbP Properdin-stabilized alternative pathway C3 convertase (UniProt P01024). In words: SPR (ProteOn XPR36), C3b on GLC chip, convertase formed with FB, FD and FP, control IgG injected.
Chain of C3bBbP Properdin-stabilized alternative pathway C3 convertase (P01024 23-1663 limits assumed, chain 1 of 3): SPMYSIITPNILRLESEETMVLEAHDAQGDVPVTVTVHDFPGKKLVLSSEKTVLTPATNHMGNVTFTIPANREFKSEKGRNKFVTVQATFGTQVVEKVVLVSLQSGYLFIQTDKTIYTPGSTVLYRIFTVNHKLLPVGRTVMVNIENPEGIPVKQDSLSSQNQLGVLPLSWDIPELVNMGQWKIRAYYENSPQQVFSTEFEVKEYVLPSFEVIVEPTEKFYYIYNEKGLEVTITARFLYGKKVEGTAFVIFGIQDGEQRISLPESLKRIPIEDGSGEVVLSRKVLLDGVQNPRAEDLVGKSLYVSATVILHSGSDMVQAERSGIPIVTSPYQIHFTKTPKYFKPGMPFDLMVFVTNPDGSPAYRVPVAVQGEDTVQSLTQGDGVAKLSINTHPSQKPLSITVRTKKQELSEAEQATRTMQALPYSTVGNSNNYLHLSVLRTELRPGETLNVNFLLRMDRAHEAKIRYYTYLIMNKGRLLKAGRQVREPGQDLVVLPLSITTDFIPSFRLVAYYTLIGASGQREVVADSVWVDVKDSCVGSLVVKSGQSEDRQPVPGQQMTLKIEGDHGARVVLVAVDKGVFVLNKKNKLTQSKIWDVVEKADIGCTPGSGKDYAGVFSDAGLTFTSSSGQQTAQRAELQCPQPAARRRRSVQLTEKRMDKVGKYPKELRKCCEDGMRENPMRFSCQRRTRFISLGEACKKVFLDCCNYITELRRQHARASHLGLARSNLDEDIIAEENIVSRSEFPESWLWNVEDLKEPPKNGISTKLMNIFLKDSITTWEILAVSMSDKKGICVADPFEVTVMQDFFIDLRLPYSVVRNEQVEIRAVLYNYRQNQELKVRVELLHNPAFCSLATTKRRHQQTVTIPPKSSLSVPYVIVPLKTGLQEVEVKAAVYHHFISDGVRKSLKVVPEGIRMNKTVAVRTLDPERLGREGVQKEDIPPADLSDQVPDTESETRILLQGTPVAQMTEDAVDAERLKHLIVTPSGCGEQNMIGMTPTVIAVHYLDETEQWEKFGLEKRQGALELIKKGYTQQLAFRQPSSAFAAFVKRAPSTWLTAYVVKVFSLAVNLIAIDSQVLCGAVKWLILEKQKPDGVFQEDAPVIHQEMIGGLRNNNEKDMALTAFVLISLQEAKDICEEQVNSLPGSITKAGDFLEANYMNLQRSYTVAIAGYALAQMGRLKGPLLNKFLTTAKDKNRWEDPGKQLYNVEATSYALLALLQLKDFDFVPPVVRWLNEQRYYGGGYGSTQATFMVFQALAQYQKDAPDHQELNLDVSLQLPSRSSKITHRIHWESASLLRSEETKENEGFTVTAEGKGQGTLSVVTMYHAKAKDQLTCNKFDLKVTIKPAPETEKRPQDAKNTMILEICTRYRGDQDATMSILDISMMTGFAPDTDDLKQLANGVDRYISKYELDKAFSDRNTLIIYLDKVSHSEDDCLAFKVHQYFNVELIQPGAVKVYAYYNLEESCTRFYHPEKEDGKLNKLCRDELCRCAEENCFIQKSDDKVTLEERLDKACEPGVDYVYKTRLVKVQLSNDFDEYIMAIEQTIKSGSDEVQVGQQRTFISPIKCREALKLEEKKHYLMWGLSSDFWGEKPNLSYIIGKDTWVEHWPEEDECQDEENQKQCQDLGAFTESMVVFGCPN
Chain of C3bBbP Properdin-stabilized alternative pathway C3 convertase (P00751 260-764 limits assumed, chain 2 of 3, further chain): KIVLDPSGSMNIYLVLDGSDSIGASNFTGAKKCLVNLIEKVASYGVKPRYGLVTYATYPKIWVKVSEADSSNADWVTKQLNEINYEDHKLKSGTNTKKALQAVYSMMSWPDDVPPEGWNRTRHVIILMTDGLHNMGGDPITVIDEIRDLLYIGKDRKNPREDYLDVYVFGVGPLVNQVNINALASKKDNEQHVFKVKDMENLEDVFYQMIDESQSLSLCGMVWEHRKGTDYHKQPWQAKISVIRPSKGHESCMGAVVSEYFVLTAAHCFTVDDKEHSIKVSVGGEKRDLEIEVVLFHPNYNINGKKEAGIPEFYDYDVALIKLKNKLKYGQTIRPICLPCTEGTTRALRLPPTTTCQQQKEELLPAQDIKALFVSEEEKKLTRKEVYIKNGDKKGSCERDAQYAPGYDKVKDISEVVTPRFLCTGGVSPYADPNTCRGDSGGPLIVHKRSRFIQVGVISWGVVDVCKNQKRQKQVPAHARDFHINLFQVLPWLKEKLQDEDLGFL
Chain of C3bBbP Properdin-stabilized alternative pathway C3 convertase (P27918 28-469 limits assumed, chain 3 of 3, further chain): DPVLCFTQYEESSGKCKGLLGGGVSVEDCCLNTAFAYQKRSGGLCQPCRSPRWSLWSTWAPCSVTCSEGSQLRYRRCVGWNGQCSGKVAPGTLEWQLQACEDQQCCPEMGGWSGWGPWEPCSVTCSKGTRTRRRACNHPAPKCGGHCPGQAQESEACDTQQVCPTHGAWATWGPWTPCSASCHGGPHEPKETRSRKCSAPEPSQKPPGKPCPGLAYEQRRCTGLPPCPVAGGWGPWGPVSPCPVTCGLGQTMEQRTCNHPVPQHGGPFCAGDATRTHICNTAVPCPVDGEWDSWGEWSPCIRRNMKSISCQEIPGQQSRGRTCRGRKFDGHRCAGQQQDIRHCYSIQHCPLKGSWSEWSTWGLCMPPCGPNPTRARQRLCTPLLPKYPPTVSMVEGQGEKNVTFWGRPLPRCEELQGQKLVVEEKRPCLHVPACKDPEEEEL
In experiment [7] the target is T2, membrane bound C3bBb convertase (Homo sapiens, UniProt P00751+P01024).
T2 construct: EAC3bBb generated by the incubation of EC3b with appropriate concentration of FB and FD; incubated in presence of FB (Complement Technology) and FD (Sigma) to form the alternative convertase C3bBb; purchased Complement Technology (FB); Sigma (FD); host or cells: sheep erythrocytes coated with C3b
T2 sequence (P01024 23-667 limits assumed): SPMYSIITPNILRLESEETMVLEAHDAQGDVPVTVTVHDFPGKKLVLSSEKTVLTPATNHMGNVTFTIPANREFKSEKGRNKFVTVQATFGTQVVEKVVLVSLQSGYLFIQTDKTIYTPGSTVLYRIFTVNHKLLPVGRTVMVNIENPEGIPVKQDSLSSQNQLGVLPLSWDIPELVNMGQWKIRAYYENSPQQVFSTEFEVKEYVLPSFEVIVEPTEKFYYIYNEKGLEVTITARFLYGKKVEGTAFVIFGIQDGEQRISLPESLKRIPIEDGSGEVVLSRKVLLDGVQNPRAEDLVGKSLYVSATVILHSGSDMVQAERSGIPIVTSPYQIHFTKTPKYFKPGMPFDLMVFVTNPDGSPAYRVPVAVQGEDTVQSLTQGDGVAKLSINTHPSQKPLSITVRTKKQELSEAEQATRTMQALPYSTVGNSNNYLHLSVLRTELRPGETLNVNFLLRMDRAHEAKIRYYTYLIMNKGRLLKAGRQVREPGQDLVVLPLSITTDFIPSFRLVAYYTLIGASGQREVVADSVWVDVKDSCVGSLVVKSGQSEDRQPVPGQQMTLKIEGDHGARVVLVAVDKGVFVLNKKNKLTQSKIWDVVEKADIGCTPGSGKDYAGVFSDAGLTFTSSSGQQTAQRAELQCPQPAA
T2 sequence (P01024 749-1663 limits assumed): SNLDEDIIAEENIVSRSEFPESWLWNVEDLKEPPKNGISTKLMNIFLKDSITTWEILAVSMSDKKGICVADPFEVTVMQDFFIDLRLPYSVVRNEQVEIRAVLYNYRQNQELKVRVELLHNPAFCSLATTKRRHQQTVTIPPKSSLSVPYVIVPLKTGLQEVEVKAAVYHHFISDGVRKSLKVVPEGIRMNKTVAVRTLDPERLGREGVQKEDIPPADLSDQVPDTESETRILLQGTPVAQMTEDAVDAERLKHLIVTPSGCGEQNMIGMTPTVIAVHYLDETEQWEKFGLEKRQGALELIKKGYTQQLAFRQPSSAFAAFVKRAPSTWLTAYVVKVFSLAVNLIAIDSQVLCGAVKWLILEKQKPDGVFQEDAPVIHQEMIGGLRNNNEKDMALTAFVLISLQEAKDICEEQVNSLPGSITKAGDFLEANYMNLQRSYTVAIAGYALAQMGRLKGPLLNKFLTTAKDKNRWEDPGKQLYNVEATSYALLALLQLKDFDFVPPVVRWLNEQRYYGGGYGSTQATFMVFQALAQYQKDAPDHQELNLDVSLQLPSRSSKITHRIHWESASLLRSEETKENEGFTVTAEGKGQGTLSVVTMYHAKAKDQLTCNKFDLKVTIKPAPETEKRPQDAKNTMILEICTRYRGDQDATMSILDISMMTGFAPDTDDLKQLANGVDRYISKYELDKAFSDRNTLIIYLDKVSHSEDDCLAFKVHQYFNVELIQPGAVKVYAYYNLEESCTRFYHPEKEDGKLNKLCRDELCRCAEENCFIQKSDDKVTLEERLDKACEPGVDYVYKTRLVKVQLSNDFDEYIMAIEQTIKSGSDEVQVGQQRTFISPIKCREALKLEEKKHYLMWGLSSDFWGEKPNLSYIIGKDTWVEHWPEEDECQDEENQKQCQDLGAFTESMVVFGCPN
T2 sequence (P00751 260-764 limits assumed): as the sequence (P00751 260-764 limits assumed, chain 2 of 3, further chain) above
In words: C3b erythrocyte based C3bBb convertase stabilization / competition assay. In kind it is biochemical. As to the method:
as §1
Membrane-bound convertase was formed as in the C3bBb assay. During the convertase decay step, cells were incubated with FP alone at a fixed dose (800 ng); 4 different doses of IgG alone and a mix of both IgG and FP at the same concentration. […]
[…] Residual convertase was measured and data were expressed as percentage of inhibition (percentage of residual convertase compared to the control without peptide).

For experiment [8], the target named is Properdin (human, UniProt P27918 28-469). The experiment is described as follows: cell-based or functional assay.
Chain of Properdin (human, UniProt P27918 28-469) (P27918 28-469 limits assumed): as the sequence (P27918 28-469 limits assumed, chain 3 of 3, further chain) above
In experiment [9] the target is Properdin like C3NeF (3 patients' Ig positive for the C3bBb and negative for the C3bBbP test, Example 2). The experiment is described as follows: cell-based or functional assay.
For experiment [10], the target named is 3 C3NeF samples positive for the C3bBb and negative for the C3bBbP test (Example 1). The experiment is described as follows: cell-based or functional assay.
In experiment [11] the target is 3 C3NeF samples positive in both the C3bBb and the C3bBbP tests (Example 1). The experiment is described as follows: cell-based or functional assay.
Experiment [12] concerns the target Properdin enhancer C3NeF (4 patients' Ig positive in both tests, Example 2). The experiment is described as follows: cell-based or functional assay.
Where [13] appears, read: in presence of Properdin_enhancer C3NeF.
The mark [14] stands for this setting: in presence of Properdin_like C3NeF.

Where no end group is shown, it is not given here.

T1 sequence (P27918 28-469): as the sequence (P27918 28-469 limits assumed, chain 3 of 3, further chain) above
Chain of C3bBb alternative pathway C3 convertase (P01024 23-667 limits assumed, form in doubt, chain 1 of 3): as the sequence (P01024 23-667 limits assumed) above
Chain of C3bBb alternative pathway C3 convertase (P01024 749-1663 limits assumed, form in doubt, chain 2 of 3): as the sequence (P01024 749-1663 limits assumed) above
Chain of C3bBb alternative pathway C3 convertase (P00751 260-764 limits assumed, form in doubt, chain 3 of 3, further chain): as the sequence (P00751 260-764 limits assumed, chain 2 of 3, further chain) above

On to “G-QDEENQKQCQDLGAFTESMVVFNIENLQKTVWD (GQDEENQKQCQDLGAFTESMVVFNIENLQKTVWD; N-terminal G; Synthetic pep1) [peptide 1, 22 residues of C3b (1616-1637) and 11 residues of Bb (308-318)]”, for which, in the experiment with Properdin [1], the “dose dependence of inhibition of Properdin stabilization” value is listed as “dose-dependent”. In the experiment on C3NeF (patient IgG) [2], the “decrease of % stabilization of P1 IgG” value came to 40%. The C3NeF stabilization diminished with C3NeF (patient IgG) [2] (3 C3NeF samples positive for the C3bBb and negative for the C3bBbP test) is 20-40%; with C3NeF (patient IgG) [2] (3 C3NeF samples positive in both tests) it was 20-70%. Further, the results for the “percentage of inhibition vs control” value in the experiment with C3NeF (patient IgG) [2] (setting [13]) and in the experiment with C3NeF (patient IgG) [2] (setting [14]) were “No significant difference” and “significantly higher”, respectively. For the same molecule, in the experiment with Properdin [3], the “capacity of peptides to bind Properdin” value is “binds”. Also, the “dose dependence of inhibition of IgG stabilization” value in the experiment with C3NeF (patient IgG) [4] is given as “dose dependent”.

Take “G-EDEEPWEQITVV YPKIWV (GEDEEPWEQITVVYPKIWV; Synthetic pep2) [peptide 2, 3 parts of C3b and one part of the vWFA domain of Bb]”: in the experiment with Properdin [1], the “% inhibition of the Properdin stabilization capacity” value (“% inhibition” for short) was “no effect”. For the same molecule, the “decrease of % stabilization of P1 IgG” value in the experiment with C3NeF (patient IgG) [2] is “remained in the same range”.

In the case of GAFTESMVVFLKHDEYNIE (Synthetic short1), in the experiment with C3NeF (patient IgG) [2] (Example 2, Properdin enhancer C3NeF (4 patients' Ig positive in both tests), 80 μg peptide), the “stabilization of the Convertase diminished” value is recorded as 40-80%. The figures for the “percentage of inhibition vs control” value in the experiment with C3NeF (patient IgG) [2] (setting [13]) and in the experiment on C3NeF (patient IgG) [2] (setting [14]) were “significantly higher” and “No significant difference”, respectively.

In the case of “G-EERLDKACENNDSIGASNFTG (GEERLDKACENNDSIGASNFTG; Synthetic pep3) [peptide 3, residues of C3b and Bb, left side of the C3 convertase]”, in the experiment with Properdin [1], the “% inhibition” value was “no effect”. Also, the “decrease of % stabilization of P1 IgG” value in the experiment with C3NeF (patient IgG) [2] is “remained in the same range”.

Take “control IgG from healthy donors (antibody)”: the IgG binding, residual (RU) was 1 RU in [5] and 13 RU in experiment [6].

In the case of “GENQKQCQDLGAFTESMVVFLKHDE (Synthetic pep1C3bExt)”, the “% inhibition” value in the experiment with Properdin [1] was “no effect”. Besides, the “percentage of inhibition vs control” value with C3NeF (patient IgG) [2] (setting [13]) is recorded as “No significant difference”; in the experiment with C3NeF (patient IgG) [2] (setting [14]) it was “significantly higher”.

Regarding “SMVVFLKHDEYNIENLQKTVWD (Synthetic pep1BbExt) [22 aminoacids comprising 5 aa on C3b and 17 from FB]”, the “dose dependence of inhibition of Properdin stabilization” value with Properdin [1] is “dose-dependent”. Besides, the “percentage of inhibition vs control” value in the experiment on C3NeF (patient IgG) [2] (setting [13]) is reported as “No significant difference”; in the experiment with C3NeF (patient IgG) [2] (setting [14]), “significantly higher”. Further, the “capacity of peptides to bind Properdin” value with Properdin [3] is “binds”.

As to “Properdin: complement protein Properdin (Calbiochem), stabilizes the C3 convertase”, the “residual C3bBb lytic site” value in experiment [7] (800 ng of Properdin) is listed as 60%. For the same molecule, in [7] (Properdin incubated with peptides' excipient), the “% of stabilization of C3 convertase” value is on record as 40%.

In the case of SMVVFLKHDEYNIENLQKTVWD (also: biotinylated when coated in ELISA) [Pep1BbExt], the “inhibition of the Properdin stabilization capacity” value in the experiment with Properdin [8] was found to be 80%. Also, in experiment [9], the stabilization diminished was 20 to 40%.

For GENQKQCQDLGAFTESMVVFLKHDE [Pep1C3bExt], in [9], the stabilization diminished lay in the range of 20 to 40%.

In the case of GQDEENQKQCQDLGAFTESMVVFNIENLQKTVWD (also: biotinylated when coated in ELISA) [Peptide 1], in the experiment with Properdin [8], the “inhibition of the Properdin stabilization capacity” value came to 80%. The C3NeF stabilization diminished in experiment [10] fell in the range of 20 to 40%; in experiment [11], 20 to 70%. The same molecule gave a stabilization diminished in experiment [9] of 20 to 40%.

For the molecule GAFTESMVVFLKHDEYNIE [short1], the stabilization diminished in experiment [12] lay within 40 to 80%.

(Values after US20180162911A1, “POLYPEPTIDES FOR THE DIAGNOSIS AND THE TREATMENT OF C3 NEF ASSOCIATED C3 GLOMERULOPATHY” (INSERM (INSTITUT NATIONAL DE LA SANTÉ ET DE LA RECHERCHE …, priority 2015, published 2018).)
